For three molecules, Kd results are on record in article PMC10404681, “Intrinsic catalytic properties of histone H3 lysine-9 methyltransferases preserve monomethylation levels under low S-adenosylmethionine” (The Journal of Biological Chemistry, 2023).

*: point of attachment. 5FAM = O=C1OC2(c3ccc(O)cc3Oc3cc(O)ccc32)c2ccc(C(=O)*)cc21

Common to all, as to assay: fluorescence polarisation; enzyme titrated (0-10 uM, monomeric) against a fixed 20-100 nM of N-terminus 5-FAM labeled H3(1-17) peptide, with 100 uM SAH; 50 mM HEPES pH 7.9, 2 mM MgCl2, 0.5 mM DTT, 0.1 mM AEBSF, 0.01% Triton X-100, 10% glycerol; 10 min at 25 °C; one site specific binding fit
Conditions in all cases: both partners purified
On the technique in general: Polarisation of emitted light reports the rotation of a fluorescent probe.

For assay [1], the target named is T1, H. sapiens EHMT1 catalytic subunit (amino acids 982 to 1266) (H. sapiens, UniProt Q9H9B1 982-1266).
T1 construct: EHMT1 (G9a-like protein, KMT1D), human, catalytic subunit, amino acids 982 to 1266; UniProt entry Q9H9B1 is printed for human EHMT1; Plasmid from Addgene (gift of Cheryl Arrowsmith); The tag is surmised from the nickel column purification; also called G9a-like protein; GLP; source: Rosetta E. coli, purified (HisTrap FF nickel column, dialysis)
T1 sequence (looked up): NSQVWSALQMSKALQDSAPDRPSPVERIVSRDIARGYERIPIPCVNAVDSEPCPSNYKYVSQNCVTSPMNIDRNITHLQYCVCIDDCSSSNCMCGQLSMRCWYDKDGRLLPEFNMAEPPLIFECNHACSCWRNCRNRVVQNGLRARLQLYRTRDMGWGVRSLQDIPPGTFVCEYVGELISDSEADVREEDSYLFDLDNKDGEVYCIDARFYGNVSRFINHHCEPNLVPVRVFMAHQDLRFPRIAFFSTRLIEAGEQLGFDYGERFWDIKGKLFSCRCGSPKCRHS

Assay [2] addresses T2, H. sapiens EHMT2 catalytic subunit (amino acids 913 to 1193) (H. sapiens, UniProt Q96KQ7 913-1193).
T2 construct: EHMT2 (G9a, KMT1C), human, catalytic subunit, amino acids 913 to 1193; Plasmid provided by the laboratory of Peter W. Lewis; The tag is surmised from the nickel column purification; also called G9a; KMT1C; source: Rosetta E. coli, purified (HisTrap FF nickel column, dialysis)
T2 sequence (looked up): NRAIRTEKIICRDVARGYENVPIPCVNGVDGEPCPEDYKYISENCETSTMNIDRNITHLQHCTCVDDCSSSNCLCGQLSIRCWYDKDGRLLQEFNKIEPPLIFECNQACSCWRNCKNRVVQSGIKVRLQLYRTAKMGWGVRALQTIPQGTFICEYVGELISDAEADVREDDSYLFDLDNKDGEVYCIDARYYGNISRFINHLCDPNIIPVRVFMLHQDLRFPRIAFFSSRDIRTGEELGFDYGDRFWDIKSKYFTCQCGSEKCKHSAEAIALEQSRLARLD

For assay [3], the target named is T3, SUV39H1, full length with N-terminal maltose-binding protein (UniProt O43463 1-412).
T3 construct: SUV39H1 (KMT1A), full length; Plasmid generated for this study; The His tag is surmised from the nickel column purification; also called KMT1A; source: Rosetta E. coli, purified (HisTrap FF nickel column, dialysis)
T3 sequence (looked up): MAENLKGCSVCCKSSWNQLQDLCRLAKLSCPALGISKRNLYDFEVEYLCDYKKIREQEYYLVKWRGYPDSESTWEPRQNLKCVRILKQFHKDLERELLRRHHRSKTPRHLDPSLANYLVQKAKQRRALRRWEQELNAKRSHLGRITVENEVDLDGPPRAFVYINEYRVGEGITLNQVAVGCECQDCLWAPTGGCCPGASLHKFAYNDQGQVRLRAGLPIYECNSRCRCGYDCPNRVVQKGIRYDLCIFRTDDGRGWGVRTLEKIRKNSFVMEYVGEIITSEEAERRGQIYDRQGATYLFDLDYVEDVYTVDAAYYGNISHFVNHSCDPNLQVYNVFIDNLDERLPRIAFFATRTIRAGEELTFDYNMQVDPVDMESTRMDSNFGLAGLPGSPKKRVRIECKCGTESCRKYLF

Assay [4] has as its target T4, H. sapiens SUV39H2 catalytic subunit (amino acids 162 to 410) (H. sapiens, UniProt Q9H5I1 162-410).
T4 construct: Plasmid from Addgene (gift of Cheryl Arrowsmith); The tag is surmised from the nickel column purification; also called KMT1B; source: Rosetta E. coli, purified (HisTrap FF nickel column, dialysis)

Usually Kd stands for the free concentration of one partner at which half of the binding sites on the other are occupied at equilibrium, for simple one-to-one binding.

T4 sequence (Q9H5I1 162-410): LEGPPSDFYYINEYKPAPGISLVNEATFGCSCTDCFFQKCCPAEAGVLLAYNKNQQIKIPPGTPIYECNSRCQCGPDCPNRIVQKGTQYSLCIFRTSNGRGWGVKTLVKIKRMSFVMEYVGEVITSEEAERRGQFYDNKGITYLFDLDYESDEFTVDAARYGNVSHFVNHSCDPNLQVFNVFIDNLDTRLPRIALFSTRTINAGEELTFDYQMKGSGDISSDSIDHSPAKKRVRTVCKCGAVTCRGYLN

B1: H3(1-17) K9 monomethylated peptide, N-terminus 5-FAM labeled (peptide, UniProt P68431 2-18, looked up)
peptide: ARTKQTARKSTGGKAPR
modifications: 5-Carboxyfluorescein (5-FAM) on the N-terminus; monomethyl-lysine at 9
notes: Histone H3, residues 1-17, lysine 9 monomethylated; Made on Rink-amide resin, so the C-terminus is probably an amide (surmised); also called H3K9me1; source: synthetic peptide (solid phase synthesis on Rink-amide ChemMatrix resin, C18-HPLC-purified)
On to B1, for which the Kd came out at 74 ± 10 nM in assay [1], 26 ± 1 nM in assay [2], 750 ± 47 nM in assay [3] and 694 ± 98 nM in assay [4].

B2: H3(1-17) K9 dimethylated peptide, N-terminus 5-FAM labeled (peptide, UniProt P68431 2-18, looked up)
peptide: ARTKQTARKSTGGKAPR
modifications: 5-Carboxyfluorescein (5-FAM) on the N-terminus; dimethyl-lysine at 9
notes: Histone H3, residues 1-17, lysine 9 dimethylated; Made on Rink-amide resin, so the C-terminus is probably an amide (surmised); also called H3K9me2; source: synthetic peptide (solid phase synthesis on Rink-amide ChemMatrix resin, C18-HPLC-purified)
With B2, the equilibrium dissociation constant (Kd) is 124 ± 24 nM in assay [1], 40 ± 3 nM in assay [2], 479 ± 123 nM in assay [3] and 929 ± 573 nM in assay [4].

B3: H3(1-17) K9 unmodified peptide, N-terminus 5-FAM labeled (peptide, UniProt P68431 2-18, looked up)
peptide: 5FAM-ARTKQTARKSTGGKAPR-NH2
notes: Histone H3, residues 1-17, lysine 9 unmodified; Made on Rink-amide resin, so the C-terminus is probably an amide (surmised); Residues 1-17 are the same in H3.1, H3.2 and H3.3; also called H3K9un; source: synthetic peptide (solid phase synthesis on Rink-amide ChemMatrix resin, C18-HPLC-purified)
In the case of B3, the dissociation constant (Kd) came out at 29 ± 1 nM in assay [1], 16 ± 0.4 nM in assay [2], 499 ± 45 nM in assay [3] and 1080 ± 226 nM in assay [4].
